# Test results reported in EP4491631A1 (Anaveon AG, dated 2025).
# T1: IL-2R CD122-CD132 on Jurkat-PD1+ CD122+ cells (UniProt P14784 27-551; P31785 23-369)
# T1 sequence (looked up) 1: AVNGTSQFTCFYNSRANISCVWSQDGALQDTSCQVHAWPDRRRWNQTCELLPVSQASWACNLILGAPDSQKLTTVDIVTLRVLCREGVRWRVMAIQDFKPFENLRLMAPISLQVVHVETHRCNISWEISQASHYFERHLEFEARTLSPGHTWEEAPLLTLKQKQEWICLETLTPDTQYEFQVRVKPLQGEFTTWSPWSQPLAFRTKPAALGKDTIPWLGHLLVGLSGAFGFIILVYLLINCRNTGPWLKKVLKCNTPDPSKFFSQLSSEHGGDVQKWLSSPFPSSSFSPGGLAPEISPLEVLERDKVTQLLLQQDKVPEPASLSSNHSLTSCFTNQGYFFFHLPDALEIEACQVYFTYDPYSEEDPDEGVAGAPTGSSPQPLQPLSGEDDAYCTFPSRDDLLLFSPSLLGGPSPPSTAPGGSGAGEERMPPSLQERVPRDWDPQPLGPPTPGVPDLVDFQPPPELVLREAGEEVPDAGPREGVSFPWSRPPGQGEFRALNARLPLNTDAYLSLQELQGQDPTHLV
# T1 sequence (looked up) 2: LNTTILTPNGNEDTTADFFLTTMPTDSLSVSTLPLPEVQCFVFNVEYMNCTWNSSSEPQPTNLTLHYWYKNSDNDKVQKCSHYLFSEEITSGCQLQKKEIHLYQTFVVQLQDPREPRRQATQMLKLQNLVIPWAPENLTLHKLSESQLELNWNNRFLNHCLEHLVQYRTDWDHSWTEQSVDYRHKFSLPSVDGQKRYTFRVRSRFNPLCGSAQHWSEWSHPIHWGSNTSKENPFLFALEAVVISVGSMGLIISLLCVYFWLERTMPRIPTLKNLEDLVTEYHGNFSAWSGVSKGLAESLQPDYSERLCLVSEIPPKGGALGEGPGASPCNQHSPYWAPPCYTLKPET
# Molecular target: T1, IL-2R CD122-CD132 on Jurkat-PD1+ CD122+ …
# Test: cell-based or functional assay
row,Binder,EC50 value for pSTAT5 induction
1,YPW986 (bispecific antibody) chain 1: EVQLLESGGGLVQPGGSLRLSCAASGFTFSINAMTWVRQAPGKGLEWVSTISGSGFSTYYADSLKGRFTISRDNSKNTLYLQMNSLRAEDTAVYYCAKEVYGDYWGQGTLVTVSSASVAAPSVFIFPPSDEQLKSGTASVVCLLNNFYPREAKVQWKVDNALQSGNSQESVTEQDSKDSTYSLSSTLTLSKADYEKHKVYACEVTHQGLSSPVTKSFNRGECDKTHTCPPCPAPEAAGGPSVFLFPPKPKDTLMISRTPEVTCVVVDVSHEDPEVKFNWYVDGVEVHNAKTKPREEQYNSTYRVVSVLTVLHQDWLNGKEYKCKVSNKALAAPIEKTISKAKGQPREPQVYTLPPSREEMTKNQVSLTCLVKGFYPSDIAVEWESNGQPENNYKTTPPVLDSDGSFFLTSKLTVDKSRWQQGNVFSCSVMHEALHNHYTQKSLSLSPGK chain 2: RSVLTQPPSASGTPGQRVSISCSGASSNIGSQSVFWYQQLPGTAPKLLIYSNNQRPSGVPDRFSGSKSGTSASLAISGLRSEDEADYYCAAWDDSLSIWVFGGGTKLTVLSSASTKGPSVFPLAPSSKSTSGGTAALGCLVKDYFPEPVTVSWNSGALTSGVHTFPAVLQSSGLYSLSSVVTVPSSSLGTQTYICNVNHKPSNTKVDKRVEPKSC chain 3: EVQLVQSGAEVKKPGESLKISCKGSGYAFTNYLIEWVRQMPGKGLEWMGVINPGSGGTNYNEKFKGQVTISADKSISTAYLQWSSLKASDTAMYYCARWRGEGYYAYFDVWGQGTTVTVSSASTKGPSVFPLAPSSKSTSGGTAALGCLVKDYFPEPVTVSWNSGALTSGVHTFPAVLQSSGLYSLSSVVTVPSSSLGTQTYICNVNHKPSNTKVDKRVEPKSCDKTHTCPPCPAPEAAGGPSVFLFPPKPKDTLMISRTPEVTCVVVDVSHEDPEVKFNWYVDGVEVHNAKTKPREEQYNSTYRVVSVLTVLHQDWLNGKEYKCKVSNKALAAPIEKTISKAKGQPREPQVYTLPPSREEMTKNQVSLYCLVKGFYPSDIAVEWESNGQPENNYKTTPPVLDSDGSFFLYSKLTVDKSRWQQGNVFSCSVMHEALHNHYTQKSLSLSPGK chain 4: not shown,43.9 nM
2,PXU588 (bispecific antibody) chain 1: EVQLLESGGGLVQPGGSLRLSCAASGFTFSINAMTWVRQAPGKGLEWVSTISGSGFSTYYADSLKGRFTISRDNSKNTLYLQMNSLRAEDTAVYYCAKEVYGDYWGQGTLVTVSSASVAAPSVFIFPPSDEQLKSGTASVVCLLNNFYPREAKVQWKVDNALQSGNSQESVTEQDSKDSTYSLSSTLTLSKADYEKHKVYACEVTHQGLSSPVTKSFNRGECDKTHTCPPCPAPEAAGGPSVFLFPPKPKDTLMISRTPEVTCVVVDVSHEDPEVKFNWYVDGVEVHNAKTKPREEQYNSTYRVVSVLTVLHQDWLNGKEYKCKVSNKALAAPIEKTISKAKGQPREPQVYTLPPSREEMTKNQVSLTCLVKGFYPSDIAVEWESNGQPENNYKTTPPVLDSDGSFFLTSKLTVDKSRWQQGNVFSCSVMHEALHNHYTQKSLSLSPGK chain 2: RSVLTQPPSASGTPGQRVSISCSGASSNIGSSSVFWYQQLPGTAPKLLIYSNNQRPSGVPDRFSGSKSGTSASLAISGLRSEDEADYYCAAWDDSLSIWVFGGGTKLTVLSSASTKGPSVFPLAPSSKSTSGGTAALGCLVKDYFPEPVTVSWNSGALTSGVHTFPAVLQSSGLYSLSSVVTVPSSSLGTQTYICNVNHKPSNTKVDKRVEPKSC chain 3: EVQLVQSGAEVKKPGESLKISCKGSGYAFTNYLIEWVRQMPGKGLEWMGVINPGSGGTNYNEKFKGQVTISADKSISTAYLQWSSLKASDTAMYYCARWRGEGYYAYFDVWGQGTTVTVSSASTKGPSVFPLAPSSKSTSGGTAALGCLVKDYFPEPVTVSWNSGALTSGVHTFPAVLQSSGLYSLSSVVTVPSSSLGTQTYICNVNHKPSNTKVDKRVEPKSCDKTHTCPPCPAPEAAGGPSVFLFPPKPKDTLMISRTPEVTCVVVDVSHEDPEVKFNWYVDGVEVHNAKTKPREEQYNSTYRVVSVLTVLHQDWLNGKEYKCKVSNKALAAPIEKTISKAKGQPREPQVYTLPPSREEMTKNQVSLYCLVKGFYPSDIAVEWESNGQPENNYKTTPPVLDSDGSFFLYSKLTVDKSRWQQGNVFSCSVMHEALHNHYTQKSLSLSPGK chain 4: not shown,5.37 nM

# More lines, now with the values ahead:
row,EC50 value for pSTAT5 induction,Binder
1,0.06 nM,"MDS446 (bispecific antibody, human IgG1, kappa, L234A L235A) chain 1: QVQLVQSGAEVKKPGASVKVSCKASGYTFTNFYIHWVRQAPGQGLEWMGSIYPNYGITAYNQKFKDRVTMTVDTSTSTAYMELRSLRSDDTAVYYCARGYSYAMDYWGQGTTVTVSSASTKGPSVFPLAPSSKSTSGGTAALGCLVKDYFPEPVTVSWNSGALTSGVHTFPAVLQSSGLYSLSSVVTVPSSSLGTQTYICNVNHKPSNTKVDKRVEPKSCDKTHTCPPCPAPEAAGGPSVFLFPPKPKDTLMISRTPEVTCVVVDVSHEDPEVKFNWYVDGVEVHNAKTKPREEQYNSTYRVVSVLTVLHQDWLNGKEYKCKVSNKALAAPIEKTISKAKGQPREPQVYTLPPSREEMTKNQVSLTCLVKGFYPSDIAVEWESNGQPENNYKTTPPVLDSDGSFFLTSKLTVDKSRWQQGNVFSCSVMHEALHNHYTQKSLSLSPGK chain 2: DIQMTQSPSSVSASVGDRVTITCSASQGISGDLNWYQQKPGKAPKLLIYHTSQLHSDVPSRFSGSGSGTDFTLTISSLQPEDFATYYCQGYSKDLLTFGGGTKLEIKRTVAAPSVFIFPPSDEQLKSGTASVVCLLNNFYPREAKVQWKVDNALQSGNSQESVTEQDSKDSTYSLSSTLTLSKADYEKHKVYACEVTHQGLSSPVTKSFNRGEC chain 3: AIRLTQSPSSFSASTGDRVTITCKASQSVDYGGGNFHLRPRDLISNINVIVLELKGSETTFMCEYADETATIVEFLNRWITFSQSIISTLTPTSSSTKKTQLQLEHLLLDLQMILNGINNYKNPKLTRMLTFKFYMPKKATELKHLQCLEEELKPLEEVLNLAQSKGGGGDSYMNWYQQKPGKAPKLLIYAASNLESGVPSRFSGSGSGTDFTLTISSLQSEDFATYYCQQSNEDPYTFGGGTKVEIKGGGGSGGGGSGGGGSEVQLVQSGAEVKKPGESLKISCKGSGYAFTNYLIEWVRQMPGKGLEWMGVINPGSGGTNYNEKFKGQVTISADKSISTAYLQWSSLKASDTAMYYCARWRGEGYYAYFDVWGQGTTVTVSSGGGGSGGGGSQVQLVQSGAEVKKPGASVKVSCKASGYTFTNFYIHWVRQAPGQGLEWMGSIYPNYGITAYNQKFKDRVTMTVDTSTSTAYMELRSLRSDDTAVYYCARGYSYAMDYWGQGTTVTVSSASTKGPSVFPLAPSSKSTSGGTAALGCLVKDYFPEPVTVSWNSGALTSGVHTFPAVLQSSGLYSLSSVVTVPSSSLGTQTYICNVNHKPSNTKVDKRVEPKSCDKTHTCPPCPAPEAAGGPSVFLFPPKPKDTLMISRTPEVTCVVVDVSHEDPEVKFNWYVDGVEVHNAKTKPREEQYNSTYRVVSVLTVLHQDWLNGKEYKCKVSNKALAAPIEKTISKAKGQPREPQVYTLPPSREEMTKNQVSLYCLVKGFYPSDIAVEWESNGQPENNYKTTPPVLDSDGSFFLYSKLTVDKSRWQQGNVFSCSVMHEALHNHYTQKSLSLSPGK"
2,0.06 nM,"TMU471 (bispecific antibody, human IgG1, kappa, L234A L235A) chain 1: QVQLVQSGAEVKKPGASVKVSCKASGYTFTNFYIHWVRQAPGQGLEWMGRIYPNYGITAYNQKFKDRVTMTVDTSTSTAYMELRSLRSDDTAVYYCARGYSYAMDYWGQGTTVTVSSASTKGPSVFPLAPSSKSTSGGTAALGCLVKDYFPEPVTVSWNSGALTSGVHTFPAVLQSSGLYSLSSVVTVPSSSLGTQTYICNVNHKPSNTKVDKRVEPKSCDKTHTCPPCPAPEAAGGPSVFLFPPKPKDTLMISRTPEVTCVVVDVSHEDPEVKFNWYVDGVEVHNAKTKPREEQYNSTYRVVSVLTVLHQDWLNGKEYKCKVSNKALAAPIEKTISKAKGQPREPQVYTLPPSREEMTKNQVSLTCLVKGFYPSDIAVEWESNGQPENNYKTTPPVLDSDGSFFLTSKLTVDKSRWQQGNVFSCSVMHEALHNHYTQKSLSLSPGK chain 2: DIQMTQSPSSVSASVGDRVTITCSASQGISGDLNWYQQKPGKAPKLLIYHTSQRHSDVPSRFSGSGSGTDFTLTISSLQPEDFATYYCQGYSKDLLTFGGGTKLEIKRTVAAPSVFIFPPSDEQLKSGTASVVCLLNNFYPREAKVQWKVDNALQSGNSQESVTEQDSKDSTYSLSSTLTLSKADYEKHKVYACEVTHQGLSSPVTKSFNRGEC chain 3: AIRLTQSPSSFSASTGDRVTITCKASQSVDYGGGNFHLRPRDLISNINVIVLELKGSETTFMCEYADETATIVEFLNRWITFSQSIISTLTPTSSSTKKTQLQLEHLLLDLQMILNGINNYKNPKLTRMLTFKFYMPKKATELKHLQCLEEELKPLEEVLNLAQSKGGGGDSYMNWYQQKPGKAPKLLIYAASNLESGVPSRFSGSGSGTDFTLTISSLQSEDFATYYCQQSNEDPYTFGGGTKVEIKGGGGSGGGGSGGGGSEVQLVQSGAEVKKPGESLKISCKGSGYAFTNYLIEWVRQMPGKGLEWMGVINPGSGGTNYNEKFKGQVTISADKSISTAYLQWSSLKASDTAMYYCARWRGEGYYAYFDVWGQGTTVTVSSGGGGSGGGGSQVQLVQSGAEVKKPGASVKVSCKASGYTFTNFYIHWVRQAPGQGLEWMGRIYPNYGITAYNQKFKDRVTMTVDTSTSTAYMELRSLRSDDTAVYYCARGYSYAMDYWGQGTTVTVSSASTKGPSVFPLAPSSKSTSGGTAALGCLVKDYFPEPVTVSWNSGALTSGVHTFPAVLQSSGLYSLSSVVTVPSSSLGTQTYICNVNHKPSNTKVDKRVEPKSCDKTHTCPPCPAPEAAGGPSVFLFPPKPKDTLMISRTPEVTCVVVDVSHEDPEVKFNWYVDGVEVHNAKTKPREEQYNSTYRVVSVLTVLHQDWLNGKEYKCKVSNKALAAPIEKTISKAKGQPREPQVYTLPPSREEMTKNQVSLYCLVKGFYPSDIAVEWESNGQPENNYKTTPPVLDSDGSFFLYSKLTVDKSRWQQGNVFSCSVMHEALHNHYTQKSLSLSPGK"
